Laboratory results: paper PMC5986797, “Laminin heparin-binding peptides bind to several growth factors and enhance diabetic wound healing” (Nature Communications, 2018)

Key:
Details in all cases: both partners purified
[1] = target: T1, recombinant human laminin-521 (human, UniProt O15230 36-3695; P55268 33-1798; P11047 34-1609); assay: SPR; laminin-521 immobilised by amine coupling on a C1 chip (~2000 RU); GF flown at 20 μL/min in 0.01 M HEPES pH 7.4, 0.15 M NaCl, 0.005% surfactant P20; Langmuir binding kinetics
T1 construct: laminin subunit alpha-5, human; chain told by the isoform's name; laminin subunit beta-2, human; laminin subunit gamma-1, human; also called laminin isoform-521; source: bought: BioLamina (recombinant human, >95% purity); copies: + +

[2] = target: T2, recombinant laminin LAMA3_(2928–3150) protein (human, UniProt Q16787 2928-3150); assay: SPR; LAMA3 2928–3150 immobilised by amine coupling on a C1 chip (~1000 RU); GF flown at 20 μL/min in 0.01 M HEPES pH 7.4, 0.15 M NaCl, 0.005% surfactant P20; Langmuir binding kinetics
T2 construct: laminin subunit alpha-3, human, LG domain Ser2928-Cys3150 (linker domain and LG4 domain); also called laminin alpha 3 LG domain recombinant protein; source: HEK-293F, transfected, purified from culture medium (HisTrap, size-exclusion chromatography)
T2 sequence (looked up): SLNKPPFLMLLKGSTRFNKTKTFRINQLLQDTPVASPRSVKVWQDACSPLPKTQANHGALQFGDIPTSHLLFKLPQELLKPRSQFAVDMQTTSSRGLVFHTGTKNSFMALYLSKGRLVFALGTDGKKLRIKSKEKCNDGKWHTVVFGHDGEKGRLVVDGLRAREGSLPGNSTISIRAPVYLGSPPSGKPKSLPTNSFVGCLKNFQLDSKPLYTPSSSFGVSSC

[3] = target: T3, recombinant human laminin-111 (human, UniProt P25391 18-3075; P07942 22-1786; P11047 34-1609); assay: ELISA; plates coated with 50 nM GF or chemokine in PBS; 10 nM laminin isoform in PBS added; bound laminin detected with anti-LAMC1 or anti-LAMA3 polyclonal antibody; A450 signals greater than 0.1 taken as binding; BSA-coated wells as control
T3 construct: laminin subunit alpha-1, human; chain told by the isoform's name; laminin subunit beta-1, human; laminin subunit gamma-1, human; source: bought: BioLamina (recombinant human, >95% purity); copies: + +

[4] = target: T4, recombinant human laminin-211 (human, UniProt P24043 23-3122; P07942 22-1786; P11047 34-1609); assay: as above
T4 construct: laminin subunit alpha-2, human; chain told by the isoform's name; laminin subunit beta-1, human; laminin subunit gamma-1, human; source: bought: BioLamina (recombinant human, >95% purity); copies: + +

B1: platelet-derived growth factor PDGF-BB (ligand, human, UniProt P01127 82-190, looked up)
chain: SLGSLTIAEPAMIAECKTRTEVFEISRRLIDRTNANFLVWPPCVEVQRCSGCCNNRNVQCRPTQVQLRPVQVRKIEIVRKKPIFKKATVTLEDHLACKCETVAAARPVT
notes: platelet-derived growth factor subunit B, human, bought in its mature form; a homodimer by its name; source: bought: PeproTech; produced in Escherichia coli
Kd [1]: 24.2 nM | Kd [2]: 10.2 nM | binding result [3]: binds | binding result [4]: binds
